According to article PMC4117760:
pKd: −log10 of the molar value.

Experiments:
[1] = tested on: MBP-CYV VP3 (Culex Y virus (CYV)); assay: EMSA
[2] = target: MBP-DXV VP3 (Drosophila X virus (DXV)) (UniProt Q96724); assay: EMSA
UniProt Q96724, sequence (Q96724 whole entry): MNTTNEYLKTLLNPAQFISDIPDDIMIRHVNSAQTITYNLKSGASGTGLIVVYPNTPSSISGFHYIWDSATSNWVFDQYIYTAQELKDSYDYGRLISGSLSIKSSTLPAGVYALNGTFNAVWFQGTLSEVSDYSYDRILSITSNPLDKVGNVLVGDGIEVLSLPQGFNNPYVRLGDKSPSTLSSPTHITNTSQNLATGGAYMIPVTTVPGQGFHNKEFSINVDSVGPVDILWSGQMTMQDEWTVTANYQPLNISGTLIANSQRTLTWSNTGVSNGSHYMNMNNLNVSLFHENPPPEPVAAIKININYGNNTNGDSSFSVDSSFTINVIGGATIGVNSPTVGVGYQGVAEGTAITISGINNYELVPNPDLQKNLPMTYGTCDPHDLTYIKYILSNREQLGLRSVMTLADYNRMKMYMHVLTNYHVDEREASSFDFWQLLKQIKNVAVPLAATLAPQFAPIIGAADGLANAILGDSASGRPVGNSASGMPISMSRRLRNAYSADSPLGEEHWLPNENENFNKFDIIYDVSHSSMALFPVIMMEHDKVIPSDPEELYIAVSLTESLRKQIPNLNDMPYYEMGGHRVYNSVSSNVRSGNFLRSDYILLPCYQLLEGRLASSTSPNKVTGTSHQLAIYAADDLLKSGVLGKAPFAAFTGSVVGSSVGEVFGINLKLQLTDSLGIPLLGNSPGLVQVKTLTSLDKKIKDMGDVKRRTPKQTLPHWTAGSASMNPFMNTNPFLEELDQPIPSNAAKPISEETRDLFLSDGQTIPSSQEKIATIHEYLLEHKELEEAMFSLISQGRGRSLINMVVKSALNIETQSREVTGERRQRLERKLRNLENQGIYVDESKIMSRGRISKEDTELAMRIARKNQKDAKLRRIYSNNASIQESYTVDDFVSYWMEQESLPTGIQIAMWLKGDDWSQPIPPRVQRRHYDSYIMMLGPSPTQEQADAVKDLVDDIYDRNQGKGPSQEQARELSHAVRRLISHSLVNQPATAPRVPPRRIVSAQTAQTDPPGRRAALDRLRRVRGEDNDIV

**Q.** What does the source list for 126-nt FLuc dsRNA?
**A.** pKd [1]: 6.94; pKd [2]: 6.78
